Substitutions are numbered along the chain they refer to.

Assay [1] deals with T1, recombinant Frizzled receptor 7 (FZD7) cysteine-rich domain (CRD) fused to the Fc region of human IgG (human, UniProt O75084 33-185). Kind of assay: ELISA, 10ug/ml (200nM) Fab. As for the experimental part: (§1) FIG. 2B is a table depicting the binding of purified Fabs to purified FZD7-Fc measured by ELISA. Fabs purified from 25 ml bacterial cultures were assayed for binding to FZD7-Fc fusion protein (R&D systems) and Fc protein. ELISA plates (384 well) were coated with 2 ug/ml of protein in PBS overnight at four degrees. Wells were blocked with 0.5% BSA/PBS for 1 hour at room temperature, washed three times with 0.05% Tween20/PBS (wash buffer), and then primary dilutions of Fabs in 0.5% BSA/0.05% Tween20/PBS (dilution buffer) were added at indicated concentrations. Fabs were incubated for 1 hour at room temperature, wells were washed six times, and anti-FLAG-HRP (Sigma) was added at 1:5000 in dilution buffer. Secondary antibody was incubated for 45 minutes at room temperature, and wells were washed six times and developed with TMB substrate with an acid stop. The absorbance at 450 nm was read. n.t.=not tested.

In assay [2] the target is T2, Fc control protein.
T2 construct: also called Fc protein; control Fc protein
The experiment in a line: ELISA, 10ug/ml (200nM) Fab. As for the experimental part: as §1

Assay [3] concerns the target T1, recombinant Frizzled receptor 7 (FZD7) …. Kind of assay: ELISA, 1ug/ml (20nM) Fab. How it is done: as §1
Assay [4] has as its target T2, Fc control protein. Kind of assay: ELISA, 1ug/ml (20nM) Fab. As for the experimental part:
as §1
A general note: In an ELISA, binding on a coated surface is turned into a signal by an enzyme label.

The target in assay [5] is T3, FZD7 receptor expressed on cells (full-length) (UniProt O75084 33-574, limits assumed).
T3 construct: whole, on cells; MDA MB 231 cells may carry other Frizzled receptors too; also called full-length FZD7 receptor; endogenous receptor on MDA MB 231 cells
The experiment in a line: flow cytometry, 200 nM Fab, FZD7 over-expression line (MDA MB 231). As for the experimental part:
(§2) FIG. 3 is a table depicting the binding of the purified Fabs to cells expressing FZD7 (flow cytometry). Small scale Fabs were assayed for binding to full-length FZD7 receptor to an over-expression line in MDA MB 231 cells. In parallel, Fabs were assayed for binding to endogenous receptor expressed on the MDA MB 231 cells. Cells were harvested using an EDTA solution, blocked in 2% FBS/PBS (stain buffer), and stained with 200 nM Fab for 30 min on ice. Cells were washed two times with stain buffer and incubated with anti-F(ab′)₂-APC secondary antibody (Jackson Immuno) at 1:1000 for 15 minutes on ice. All antibodies were diluted in stain buffer. Cells were washed three times with stain buffer and then fixed with 1% paraformaldehye for analysis by flow cytometry. […] The percent of the cell population within the positive gates is indicated.
For orientation: Flow cytometry measures light scatter and fluorescence of single cells or particles in a stream.

For assay [6], the target named is T3, FZD7 receptor expressed on cells …. The experiment in a line: flow cytometry, 200 nM Fab, MDA MB 231. How it is done:
as §2

B1: E9 (Fab)
light: DIQMTQSPSSLSASVGDRVTITCRASQSVSSAVAWYQQKPGKAPKLLIYSASSLYSGVPSRFSGSRSGTDFTLTISSLQPEDFATYYCQQSYVGGPFTFGQGTKVEIKRTVAAPSVFIFPPSDSQLKSGTASVVCLLNNFYPREAKVQWKVDNALQSGNSQESVTEQDSKDSTYSLSSTLTLSKADYEKHKVYACEVTHQGLSSPVTKSFNRGECGGS
heavy: EVQLVESGGGLVQPGGSLRLSCAASGFNISYYSMHWVRQAPGKGLEWVASISSSYSSTYYADSVKGRFTISADTSKNTAYLQMNSLRAEDTAVYYCARGYWYVYVGWGAYYGPVGMDYWGQGTLVTVSSASTKGPSVFPLAPSSKSTSGGTAALGCLVKDYFPEPVTVSWNSGALTSGVHTFPAVLQSSGLYSLSSVVTVPSSSLGTQTYICNVNHKPSNTKVDKKVEPKSC
notes: selection round 2; not the round 3 clone E9 (f29); also called Fzd7-R2-E9
Take B1: the “OD 450” value is 3.22 in assay [1], 0.07 in the assay with Fc control protein [2], 3.15 in assay [3] and 0.05 with Fc control protein [4]. Also, the “% population within the positive gate” value in assay [5] was determined as 90.7%; in assay [6] it was 99.4%.

B2: D6 (Fab)
light: DIQMTQSPSSLSASVGDRVTITCRASQSVSSAVAWYQQKPGKAPKLLIYSASSLYSGVPSRFSGSRSGTDFTLTISSLQPEDFATYYCQQFYYSLITFGQGTKVEIKRTVAAPSVFIFPPSDSQLKSGTASVVCLLNNFYPREAKVQWKVDNALQSGNSQESVTEQDSKDSTYSLSSTLTLSKADYEKHKVYACEVTHQGLSSPVTKSFNRGECGGS
heavy: EVQLVESGGGLVQPGGSLRLSCAASGFNISYSSMHWVRQAPGKGLEWVASIYSSYSYTSYADSVKGRFTISADTSKNTAYLQMNSLRAEDTAVYYCARSYGPWAPGWAAYWGGYGMDYWGQGTLVTVSSASTKGPSVFPLAPSSKSTSGGTAALGCLVKDYFPEPVTVSWNSGALTSGVHTFPAVLQSSGLYSLSSVVTVPSSSLGTQTYICNVNHKPSNTKVDKKVEPKSC
notes: selection round 2; also called Fzd7-R2-D6
Take B2: the “OD 450” value in assay [1] came out at 3.09; with Fc control protein [2] it was 0.12; in assay [3] it was 2.98; in the assay with Fc control protein [4], 0.06. Also, the “% population within the positive gate” value in assay [5] worked out at 84.3%; in assay [6] it was 35.3%.

B3: B10 (Fab)
light: B2 light with F91G, Y92S, Y93V, S94W, I96F
heavy: EVQLVESGGGLVQPGGSLRLSCAASGFNISSSSMHWVRQAPGKGLEWVASISSSSSYTYYADSVKGRFTISADTSKNTAYLQMNSLRAEDTAVYYCARYGSHWSPSYSGWYYYSYALDYWGQGTLVTVSSASTKGPSVFPLAPSSKSTSGGTAALGCLVKDYFPEPVTVSWNSGALTSGVHTFPAVLQSSGLYSLSSVVTVPSSSLGTQTYICNVNHKPSNTKVDKKVEPKSC
notes: selection round 2; not the round 3 clone B10 (f30); also called Fzd7-R2-B10
Take B3: the “OD 450” value turned out to be 2.99 in assay [1], 0.06 with Fc control protein [2], 2.82 in assay [3] and 0.06 with Fc control protein [4]. Besides, the figures for the “% population within the positive gate” value in assay [5] and in assay [6] were 88.4% and 35%, respectively.

B4: G4 (Fab)
light: B2 light with F91A, Y93A, S94Y
heavy: EVQLVESGGGLVQPGGSLRLSCAASGFNISYSSMHWVRQAPGKGLEWVASISSSYGYTYYADSVKGRFTISADTSKNTAYLQMNSLRAEDTAVYYCARSGGHFYYWYVAAAMDYWGQGTLVTVSSASTKGPSVFPLAPSSKSTSGGTAALGCLVKDYFPEPVTVSWNSGALTSGVHTFPAVLQSSGLYSLSSVVTVPSSSLGTQTYICNVNHKPSNTKVDKKVEPKSC
notes: selection round 2; same four CDRs as Fzd7-R2-B2 (f22); also called Fzd7-R2-G4
On to B4, for which the “OD 450” value stood at 3.17 in assay [1], 0.07 with Fc control protein [2], 3.15 in assay [3] and 0.05 with Fc control protein [4]. The “% population within the positive gate” value in assay [5] came to 85.4%; in assay [6], 5.1%.

Values taken from patent US20160194394A1 (GOVERNING COUNCIL OF THE UNIVERSITY OF TORONTO, published 2016).
